# From the RNAGym collection of RNA variant scans (doi:10.1093/nar/gkz1192)
# B1: CPEB3 Ribozyme (parent)
# chain: UAACAGGGGGCCACAGCAGAAGCGUUCACGUCGCAGCCCCUGUCAGAUUCUGGUGAAUCUGCGAAUUCUGCUGUAUAUCUC
# Variants of: B1
# Test: self-cleavage, relative activity (ratio to wild type); higher = more cleavage; in vitro, sequencing
# How it was run: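 Barcoded CPEB3 ribozyme mutants, produced by rounds of error-prone PCR, self-cleaved while being transcribed with T7 RNA polymerase for 5 hours at 37°C and during a subsequent 15 min DNase I step before EDTA was added. Sequencing of template-switched cDNA on Illumina gave cleaved and total reads, and DNA sequencing assigned barcodes to variants. Each variant's relative activity is its cleaved/total read fraction divided by the unmutated ribozyme's fraction, averaged across three batches. A variant needed a minimum of 5 reads.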
row,Variant,self-cleavage
1,A57U U78A,1.21
2,A57U U78C,0.68
3,U58C U78G,0.44
4,U58C U78A,0.47
5,U58C U78C,0.47
6,U58C G63C,0.54
7,U58C G63A,0.51
8,U58C G63U,0.91
9,A57U U60C,0.27
10,A57U U60A,0.24
11,U58A C62U,0.23
12,A57G C81U,1.13
13,A57G C81G,1.2
14,A56U C59A,0.28
15,A56U C59U,0.19
16,A56U C59G,0.13
17,A57U U58G,0.1
18,A57U U58C,0.18
19,A57U U58A,0.3
20,A57G A65C,0.15
21,A57G A65U,0.32
22,A57G A65G,0.37
23,A57C G63A,0.58
24,A57G U76A,1.01

row,Variant,self-cleavage
1,A57G U76C,1.01
2,A57G U76G,1.08
3,C59A A65U,0.05
4,C59A A65G,0.13
5,U58C U74C,0.87
6,U58A G73A,1.1
7,A56G U72A,0.64
8,A56G U72G,0.63
9,A56G U72C,0.93
10,A56U,0.74
11,A57C U60A,0.14
12,U58A U72A,0.38
13,U58A U72C,0.43
14,U58A U72G,0.42
15,A56U U69A,0.33
16,A56U U69G,0.46
17,A56U U69C,0.38
18,U58C C79U,0.6
19,A56G C59A,0.23
20,A56G C59G,0.21
21,A56G C59U,0.52
22,A57C A77G,0.45
23,A56G U58G,0.22
24,A56G U58A,0.32

row,Variant,self-cleavage
1,A56G U58C,0.38
2,A56G C79A,1.18
3,A56G C79G,1.16
4,A56U C79A,1.12
5,A57U A75U,1.08
6,A57U A75G,0.69
7,A57C,0.48
8,A57U,0.8
9,A57G,0.96
10,U58G U76A,0.51
11,A56U G73A,1.18
12,A57U U76A,1.01
13,A57U U76C,0.94
14,U58A U78C,0.42
15,A57C A64U,0.44
16,A57C A64G,0.34
17,U58A U76A,0.49
18,U58C U80C,0.57
19,U58C U80G,0.67
20,U58C U80A,0.91
21,A57G U60G,0.26
22,A57G U60C,0.42
23,A57G U60A,0.4
24,U58G U66C,0.27

row,Variant,self-cleavage
1,A56G C71U,0.51
2,A57G G73A,1.25
3,A57G G73U,1.15
4,A56G U78A,0.91
5,A56G U78C,0.73
6,A56G U78G,0.96
7,A57U U66C,0.33
8,A56U C68U,0.55
9,A56U A65U,0.21
10,A56U A65G,0.29
11,A57U C79G,1.16
12,A57U U72C,0.89
13,A57U U72A,0.43
14,A57G U69A,0.54
15,A57G U69G,0.72
16,A57G U69C,0.48
17,A56G A65U,0.25
18,A56G A65G,0.32
19,A56G A65C,0.15
20,A57G U78G,1.12
21,A57G U78A,0.97
22,A57G U78C,0.83
23,U58C C68A,0.2
24,A56U G63C,0.61

row,Variant,self-cleavage
1,A56U G63A,0.48
2,U58A U74A,0.6
3,U58A U74C,0.67
4,U58C A77G,0.56
5,U58C A77U,0.65
6,U58C A77C,0.26
7,U58A A64G,0.32
8,A56U U60A,0.3
9,A56U U60C,0.27
10,A56U U60G,0.24
11,A57G A75G,0.74
12,A57G A75U,1.01
13,C59A,0.37
14,A56G G73C,1.26
15,A56G G73U,1.15
16,U58G A65G,0.1
17,A56G C62G,0.2
18,A56G C62A,0.23
19,A56G C62U,0.31
20,U58A,0.41
21,U58G,0.34
22,U58C,0.56
23,A57G U74G,1.23
24,A57G U74A,1.2

row,Variant,self-cleavage
1,A57G U74C,1.15
2,U58C G70A,0.37
3,C59A A64G,0.2
4,A57G G61U,0.64
5,A57G G61A,0.59
6,U58C U60G,0.24
7,U58C U60C,0.3
8,U58C U60A,0.26
9,U58A U66C,0.29
10,U58A U60C,0.23
11,U58A U60G,0.17
12,U58A U60A,0.17
13,A56U U80C,0.83
14,A56U U80A,1
15,A56G U69C,0.43
16,A56G U69G,0.54
17,A56G U69A,0.5
18,U58C U69G,0.15
19,U58C U69C,0.27
20,U58C U69A,0.3
21,A57U A65G,0.22
22,A56U G70A,0.35
23,A56U G70U,0.21
24,A56G A75G,0.64

row,Variant,self-cleavage
1,A56G A75C,1.12
2,A56G A75U,0.95
3,A56G C81A,0.96
4,A56G C81G,1.22
5,A56G C81U,1.13
6,U58C C59U,0.21
7,A57G A64U,0.36
8,A57G A64G,0.81
9,U58A A75U,0.29
10,U58A A75G,0.46
11,A56U U66C,0.32
12,A56U U66A,0.25
13,A56G U66G,0.38
14,A56G U66C,0.29
15,A56G U66A,0.44
16,A56G G61U,0.62
17,A56G G61A,0.63
18,A57G C62U,0.33
19,U58A A65G,0.17
20,U58A A65U,0.13
21,A56U U76C,0.8
22,A56U U76A,0.84
23,A56U U76G,0.89
